Drawing on patent US20230227540A1 (ABL BIO, published 2023), this text covers Kd and EC50 for 14 molecules.

Numbering of substitutions follows the chain as printed. “And” between values parts separate entries of the source, which are not always exact repeats. Identical values can stand only once.

The target in assay [1] is T1, α-syn aggregate (human, UniProt P37840 1-140). Briefly: Octet (BLI), α-syn aggregate (Example 2-6). The method, then: Specifically, the running buffer was 1 x KB buffer (cat. 18-1092) or 1 x PBS buffer at 1000 rpm, and the immobilization buffer was sodium acetate, pH 5 (10 mM, Cat 18-1068. α-syn monomers was immobilized the α-syn antigen, and fibrils was immobilized the test antibody. The target concentrations were 20 µg/ml for the monomer and 0.4 µg/ml for the fibril. The kinetics concentration was diluted sequentially two times from 50 nM for monomers and from 100 nM for fibrils, to give 7 points in total, respectively. Association/dissociation time was 5 min / 20 min for monomer and 5 min / 25 min for fibril. Biosensor was ARG2 and fitting was performed using 1: 1 fitting model.
Octet analysis was performed as described in Examples 2-4 using the ScFV anti-Syn antibodies selected in Example 1-2.

In assay [2] the target is T1, α-syn aggregate. Briefly: BIAcore (SPR), 1:1 binding model (Example 2-3), column Fibrils. On the procedure: Quantitative analysis of the binding of alpha-synuclein antibody prepared in Example 1 to monomer and aggregate antigen was performed using BIAcore analysis.
The used instrument was T200 (GE Healthcare, S / N: 1565888). Protein A is used as a chip (GE Healthcare, Cat. 29-1275-56). 10 mM Glycine-HCl pH 1.5 (GE Healthcare, Cat. BR-1003-54) was regeneration buffer. The running buffer, analyte dilution, and the sample dilution buffer were HBS-EP. The α-syn antibodies (3A9, 9B11 and 11F11) prepared in Example 1 were diluted with 1 x HBS-EP (GE Healthcare, Cat. BR-1006-69), and alpha-synuclein monomer (1 mg/ml) and fibril protein (3 mg / ml) were serially diluted in duplicate and analyzed at 6 concentrations (0, 0.39, 1.56, 6.25, 25, 100 nM) including 0 nM in total. For the capture, the monomer was for RU of 800 (theoretical), and a fibril was for RU of 100 (theoretical). The capture phase was performed at contact time of 60 seconds, a flow rate of 30 µl / min, and a stabilization period of 180 seconds. The association phase was performed at the association time of 120 seconds and the flow rate was 30 µl/min. The dissociation phase was performed at the dissociation time of 360 seconds and the flow rate of 30 µl/min. The regeneration phase was performed twice time at the regeneration time of 240 seconds (primary) and 60 seconds (secondary) and a flow rate of 30 µl/min. The fitting was carried out suing 1: 1 binding model, and the evaluation software was BIACore T200 Evaluation software (GE healthcare).

Assay [3] has as its target T1, α-syn aggregate. Briefly: ELISA (Example 2-2), column Fibrils. The method, then: ELISA analysis was performed to quantitatively analyze the binding affinity of the antibody of the present invention to the antigen. For this, alpha-synuclein antibody of the present invention was coated on a 96-well plate at a concentration of 1 mg/ml and treated with alpha, synuclein fibril aggregates at 10, 100, 1000 and 10,000 ng/ml. After washing with PBS, streptavidin conjugated with HRP and secondary antibody conjugate with biotin was treated and then reacted with TMB as a substrate. The absorbance was measured.

A further assay addresses α-syn monomer (human, UniProt P37840 1-140). Briefly: ELISA (Example 2-2), column Monomers.

B1: 3A9 (antibody, V domains shown)
VH: EVQLQESGGGLVKPGGSLKLSCAASGFTFSSYAMSWVRQTPEKRLEWVATISNGGGYTYYPDSVKGRFTISRDNAKNTLYLQMSSLRSEDTAMYYCARHITTVRPTKYFDYWGQGTTLTVSS
VL: DIVMTQSPKFMSTSVGDRVSITCKASQNVGTTVAWYQQKPGQSPKLLIYSASNRYTGVPDRFTGSGSGTDFTLTISNMQSEDLADYFCQQYSNYPLTFGAGTKLELR
notes: Only the variable domains are tied to the clone as tested; also called mouse monoclonal anti α-Syn antibody 3A9
For the molecule B1, the Kd came out at 0.13 nM with α-syn aggregate [1] and 1.32 nM with α-syn aggregate [2]. For the same molecule, the EC50 in the assay with α-syn aggregate [3] was 0.319 µg/mL and 2.13 nM.

B2: AC8 (scFv, V domains shown)
VH: EVQLLESGGGLVQPGGSLRLSCAASGFTFSDYSMSWVRQAPGKGLEWVSGISSGGSSKYYADSVKGRFTISRDNSKNTLYLQMNSLRAEDTAVYYCAKIFHNFDYWGQGTLVTVSS
VL: QSVLTQPPSASGTPGQRVTISCSGSSSNIGSNNVYWYQQLPGTAPKLLIYYDSQRPSGVPDRFSGSKSGTSASLAISGLRSEDEADYYCASWDASLSAYVFGGGTKLTVLG
notes: Clone from a human scFv phage library; The screen used soluble HA-tagged scFv; The dot blot was detected with anti-human Fc-HRP, so an Fc-bearing format may have been used there; also called ScFV anti α-Syn antibody AC8
Molecule B2 registered a Kd with α-syn aggregate [1] of 0.24 nM.

B3: DG11 (scFv, V domains shown)
VH: EVQLLESGGGLVQPGGSLRLSCAASGFTFSDYAMSWVRQAPGKGLEWVSVISPGSGSKYYADSVKGRFTISRDNSKNTLYLQMNSLRAEDTAVYYCAKVTISCARMRCSYADGMDVWGQGTLVTVSS
VL: B2 VL with S23T, N33S, Y35S, Y51A, D52N, Q54N, S91A
notes: Clone from a human scFv phage library; also called ScFV anti α-Syn antibody DG11
Consider B3, for which the affinity in the assay with α-syn aggregate [1], expressed as Kd, was 2.66 nM.

B4: DG8 (scFv, V domains shown)
VH: B3 VH with Y32H, P53H, S55N, K98R, T100A, I101S, S102R, A104R, M106G, A111S
VL: B2 VL with N33S, Y35S, Y51A, D52N, S53N, Q54N, A90G, S91A, A94S
notes: Clone from a human scFv phage library; also called ScFV anti α-Syn antibody DG8
In turn, B4 yielded a Kd in the assay with α-syn aggregate [1] of 3.8 nM.

B5: AE8 (scFv, V domains shown)
VH: EVQLLESGGGLVQPGGSLRLSCAASGFTFSNYAMSWVRQAPGKGLEWVSAISSGGGNIYYADSVKGRFTISRDNSKNTLYLQMNSLRAEDTAVYYCARRPLYFDYWGQGTLVTVSS
VL: B2 VL with S31N, N33S, Y35N, Y51A, D52N, S53N, Q54N, A90G, S97N, A98G
notes: Clone from a human scFv phage library; also called ScFV anti α-Syn antibody AE8
Turning to B5, binding in the assay with α-syn aggregate [1] was put at a Kd of 0.39 nM.

B6: AD2 (scFv, V domains shown)
VH: B2 VH with D31N, S33A, G50A, S53H, G54S, K98R, I99S, F100G, H101N
VL: B2 VL with S23T, S31N, N33S, Y35S, Y51S, S53N, Q54N, A90G, A98G
notes: Clone from a human scFv phage library; also called ScFV anti α-Syn antibody AD2
Regarding B6, the Kd with α-syn aggregate [1] came to 1.67 nM.

B7: DA9 (scFv, V domains shown)
VH: EVQLLESGGGLVQPGGSLRLSCAASGFTFSNYAMSWVRQAPGKGLEWVSVISPSDSNTYYADSVKGRFTISRDNSKNTLYLQMNSLRAEDTAVYYCARVTLSCRASRCSYSNGMDVWGQGTLVTVSS
VL: B2 VL with S26P, S31N, N33S, Y35S, Y51A, D52N, Q54H, A90G, S97N, A98G
notes: Clone from a human scFv phage library; also called ScFV anti α-Syn antibody DA9
In the assay with α-syn aggregate [1], B7 yielded a Kd of 4.31 nM.

B8: AA9 (scFv, V domains shown)
VH: EVQLLESGGGLVQPGGSLRLSCAASGFTFSSYSMSWVRQAPGKGLEWVSAIYPGSSNKYYADSVKGRFTISRDNSKNTLYLQMNSLRAEDTAVYYCARHAATFDYWGQGTLVTVSS
VL: B2 VL with N33Y, Y35S, Y51G, S53N, Q54K, A90G, S91A, A94D, A98G
notes: Clone from a human scFv phage library; also called ScFV anti α-Syn antibody AA9
B8 returned a Kd with α-syn aggregate [1] of 0.88 nM.

B9: AD7 (scFv, V domains shown)
VH: B5 VH with N31G, S53P, G54N, I58K, L101V
VL: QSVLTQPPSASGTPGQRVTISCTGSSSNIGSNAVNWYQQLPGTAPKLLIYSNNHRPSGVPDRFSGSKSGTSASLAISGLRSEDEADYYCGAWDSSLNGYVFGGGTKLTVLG
notes: Clone from a human scFv phage library; also called ScFV anti α-Syn antibody AD7
Consider B9, for which, in the assay with α-syn aggregate [1], binding was put at a Kd of 0.17 nM.

B10: 1E4 (antibody, V domains shown)
VH: EVQLQESGAELVRPGTSVKVSCKASGYAFTNYLIEWVKQRPGQGLEWIGVINPGSGGTNYNEKFKGKATLTADKSSSTAYMQLSSLTSDDSAVYFCASGNYDTYWGQGTLVTVSA
VL: DIVMTQSPLSLPVSLGDQASISCRSSQSLVHSNGNTYLHWYLQKPGQSPKLLIYKVSNRFSGVPDRFSGSGSGTDFTLKISRVEAEDLGVYFCSQSTHVPRTFGGGTKLEIK
notes: Antibody purified from a mouse hybridoma, raised against the full-length (140 residues) α-Syn aggregate; Only the variable domains are tied to the clone as tested; also called mouse monoclonal anti α-Syn antibody 1E4
B10: in the assay with α-syn aggregate [1], the Kd is 0.18 nM. In the assay with α-syn aggregate [3], the EC50 was 0.0245 µg/mL and 0.163 nM.

B11: 9B11 (antibody, V domains shown)
VH: EVQLQESGGGLVQPKGSLKLSCAASGFTFNTYAMNWVRQAPGKGLEWVARIRSKSNNYATYYADSVKDRFTISRDDSQSMLYLQMNNLKTEDTAMYYCVRQDFDYWGQGTTLTVSS
VL: B10 VL with R101L, G105A, I111Q
notes: Antibody purified from a mouse hybridoma, raised against the full-length α-Syn aggregate; Only the variable domains are tied to the clone as tested; also called mouse monoclonal anti α-Syn antibody 9B11
Take B11: the Kd with α-syn aggregate [1] came out at 0.018 nM; with α-syn aggregate [2], 0.904 nM. Further, the EC50 with α-syn aggregate [3] was 0.185 µg/mL and 1.23 nM.

B12: DG5 (scFv, V domains shown)
VH: B7 VH with S54G, D55S, S56G, L101I, S102A, R104P, A105T, S106K
VL: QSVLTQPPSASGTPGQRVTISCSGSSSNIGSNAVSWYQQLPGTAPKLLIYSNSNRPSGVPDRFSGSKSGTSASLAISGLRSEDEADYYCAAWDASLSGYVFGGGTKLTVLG
notes: Clone from a human scFv phage library; also called ScFV anti α-Syn antibody DG5
The molecule B12 gave a Kd with α-syn aggregate [1] of 1.26 nM.

B13: 11F11 (antibody, IgG2b, V domains shown)
VH: EVQLQESGGGLVQPGGSLRLSCATSGFTFSDFYMEWVRQPPGKRLEWIAASRNKANDYTTEYSASVKGRFIVSRDTSQSILYLQMNALRAEDTAIYYCARDAHGKPFAYWGQGTLVTVSA
VL: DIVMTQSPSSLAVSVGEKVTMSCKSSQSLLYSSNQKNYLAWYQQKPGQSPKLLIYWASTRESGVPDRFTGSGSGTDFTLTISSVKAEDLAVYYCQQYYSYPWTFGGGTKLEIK
notes: Only the variable domains are tied to the clone as tested; also called mouse monoclonal anti α-Syn antibody 11F11
Turning to B13, the Kd with α-syn aggregate [1] is 0.16 nM; with α-syn aggregate [2], 2.87 nM. Also, the EC50 with α-syn aggregate [3] is 0.327 µg/mL and 2.18 nM.

B14: 10F10 (antibody, IgG2a, V domains shown)
VH: EVQLQESGPGLVKPSQSLSLTCSVTGYSITGGFYWNWIRQFPGNNLEWMGYINYDGSSDYSPSLKNRISITRDTSKNQFFLNLNSVTTEDTATYYCVRGDYDWGQGTTLTVSS
VL: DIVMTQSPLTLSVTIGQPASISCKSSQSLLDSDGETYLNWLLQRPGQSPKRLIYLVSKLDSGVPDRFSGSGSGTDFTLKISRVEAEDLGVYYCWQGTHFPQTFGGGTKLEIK
notes: Only the variable domains are tied to the clone as tested; also called mouse monoclonal anti α-Syn antibody 10F10
The molecule B14 returned a Kd with α-syn aggregate [1] of 0.81 nM. The EC50 with α-syn monomer was 0.0233 µg/mL and 0.155 nM; with α-syn aggregate [3] it was 0.087 nM and 0.0131 µg/mL.
